Drawing on US20200085871A1, this text covers percent CD19+ B cells remaining in CAR T-treated MRL/lpr mice (flow cytometry) for one substance.

The target in this test is mouse CD19 on B cells (mouse) (UniProt P25918). Briefly: cell-based or functional assay.

Where “and” joins values, the source holds several entries; their conditions need not be identical. Equal entries are not always repeated.

UniProt P25918, sequence (P25918 19-547): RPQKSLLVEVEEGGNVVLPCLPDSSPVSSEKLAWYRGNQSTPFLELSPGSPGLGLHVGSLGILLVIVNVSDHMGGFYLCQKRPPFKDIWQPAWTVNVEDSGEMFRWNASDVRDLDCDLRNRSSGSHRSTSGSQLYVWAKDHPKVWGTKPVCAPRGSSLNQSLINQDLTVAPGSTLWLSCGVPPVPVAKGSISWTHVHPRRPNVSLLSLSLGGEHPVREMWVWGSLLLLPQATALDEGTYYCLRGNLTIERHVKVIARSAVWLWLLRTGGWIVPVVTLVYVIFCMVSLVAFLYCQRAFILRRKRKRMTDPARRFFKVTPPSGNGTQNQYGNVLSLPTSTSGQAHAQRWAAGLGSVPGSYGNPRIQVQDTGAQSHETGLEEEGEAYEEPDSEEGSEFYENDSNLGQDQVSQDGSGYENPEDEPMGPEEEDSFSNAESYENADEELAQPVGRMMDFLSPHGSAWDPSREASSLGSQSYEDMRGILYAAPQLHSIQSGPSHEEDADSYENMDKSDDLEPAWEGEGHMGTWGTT

Take “anti-CD19-28Z.1-3 CAR (1D3 anti-mouse CD19 chimeric antigen receptor), expressed on transduced mouse CD8+ cytotoxic T cells (from UniProt P31041 115-218; P24161 52-164)”: the percent CD19+ B cells remaining in CAR T-treated MRL/lpr mice (flow cytometry) is 0.05% and 0.14%.
